For assay [1], the target named is synaptic membrane proteins in SMPL Nanodiscs (immobilised on magnetic beads). Nature of the assay: ELISA; magnetic bead-based: SMPL Nanodiscs immobilised through the His tag of MSP on Dynabeads; PBS with 0.1% BSA and 25 mM imidazole; AβOs 1 h at 37°C; bound AβOs detected by NU2 antibody or through biotin (Vectastain) with colorimetric HRP substrate; nonspecific binding measured with excess ATA; Kd as Aβ monomer equivalent.

Assay [2] has as its target binding sites on cultured rat hippocampal neurons. Briefly: immunostaining of cells or tissue; cultured rat hippocampal neurons; biotinylated STI 30 min at 37°C, then 100 nM AβOs 30 min at 37°C; AβOs detected with NU2, STI with a streptavidin conjugate; in the PIPLC experiment 100 nM fluorescent AβOs were seen directly after 1 h of 0.2 units/mL PIPLC.

In the case of “biotin-labeled high MW AβOs (larger than 50 kDa) (from UniProt P05067 672-713; P05067 672-713) (peptide)”, in assay [1], the increase in assay response relative to unfractionated AβOs is 80%.
For “biotinylated soybean trypsin inhibitor type II (from UniProt P01070 25-205) (natural protein)”, the percent reduction of AβO binding in assay [2] was found to be 87%.

For the origin of these results see publication PMC4415972.
